Read-outs that look alike come from different tables or passages of the source. Blank lines part the entries; values can stand above or below the molecule they belong to.
How the values were obtained:
[1] = molecular target: EL222 V41I:L52I:A79Q:V121I variant (AQTrip) (Erythrobacter litoralis HTCC2594); assay: SEC-MALS
[2] = molecular target: EL222 V41I:L52I:A79Q:V121I variant (AQTrip) (Erythrobacter litoralis HTCC2594); assay: SEC-MALS; remark: listed apart in the source
[3] = molecular target: EL222 V41I:L52I:A79Q:V121I variant (AQTrip) (Erythrobacter litoralis HTCC2594); assay: SEC-MALS; remark: listed apart in the source
[4] = molecular target: EL222 S137Y variant (Erythrobacter litoralis HTCC2594); assay: SEC-MALS
[5] = molecular target: EL222 L120K variant (Erythrobacter litoralis HTCC2594); assay: SEC-MALS
native gel or EMSA = molecular target: the molecule itself; assay: native gel or EMSA

stoichiometry N [1]: 2
stoichiometry N [2]: 4
stoichiometry N [3]: 2
Molecule: EL222 V41I:L52I:A79Q:V121I variant (AQTrip) (natural protein)

stoichiometry N [4]: 2
Molecule: EL222 S137Y variant (natural protein)

stoichiometry N [5]: 2
Molecule: EL222 L120K variant (natural protein)

B1: His6-Gβ1-tagged wild-type EL222 (natural protein, Erythrobacter litoralis HTCC2594, UniProt Q2NB98 1-225, looked up)
chain: MLDMGQDRPIDGSGAPGADDTRVEVQPPAQWVLDLIEASPIASVVSDPRLADNPLIAINQAFTDLTGYSEEECVGRNCRFLAGSGTEPWLTDKIRQGVREHKPVLVEILNYKKDGTPFRNAVLVAPIYDDDDELLYFLGSQVEVDDDQPNMGMARRERAAEMLKTLSPRQLEVTTLVASGLRNKEVAARLGLSEKTVKMHRGLVMEKLNLKTSADLVRIAVEAGI
stoichiometry N (native gel or EMSA): 2
